According to article doi:10.1101/2025.01.10.632409:

Biological target: TatC from Pisum sativum (thylakoidal) (Pisum sativum (endogenous in pea thylakoids))
Assay: native gel or EMSA

Substance: TatC from Pisum sativum (thylakoidal) (natural protein)
- stoichiometry N: 3
